Where two headings read alike, the source gives them in different places.
Legend:
[1] = molecular target: human neutrophil elastase (immobilized on Reacti-Gel agarose beads, or free) (human) (UniProt P08246); test: pH elution of phage from HNE beads
[2] = molecular target: streptavidin (agarose-immobilized) (UniProt P22629); test: 5 µl immobilized streptavidin slurry, 1 h
[3] = molecular target: streptavidin (agarose-immobilized) (UniProt P22629); test: 5 µl immobilized streptavidin slurry, 2 h
[4] = molecular target: streptavidin (agarose-immobilized) (UniProt P22629); test: 5 µl immobilized streptavidin slurry, 4 h
[5] = molecular target: trypsin (active, immobilized on beads, or in solution) (UniProt P00760); test: trypsin beads, CBS pH 6.5, pH 2.2 elution
Sequence of trypsin (active, immobilized on beads, or in solution) (P00760 24-246): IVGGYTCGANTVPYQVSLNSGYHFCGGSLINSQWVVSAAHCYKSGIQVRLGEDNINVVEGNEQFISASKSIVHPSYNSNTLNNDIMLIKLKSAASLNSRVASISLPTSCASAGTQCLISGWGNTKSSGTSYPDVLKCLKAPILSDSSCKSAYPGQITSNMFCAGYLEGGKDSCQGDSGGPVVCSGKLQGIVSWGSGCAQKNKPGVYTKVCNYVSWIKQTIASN

[6] = molecular target: trypsin (active, immobilized on beads, or in solution) (UniProt P00760); test: trypsin beads, TBS pH 7.5, pH 2.2 elution
[7] = molecular target: anhydro-trypsin (agarose-immobilized) (UniProt P00760); test: 2 µl immobilized anhydro-trypsin slurry, 1 h
[8] = molecular target: anhydro-trypsin (agarose-immobilized) (UniProt P00760); test: 2 µl immobilized anhydro-trypsin slurry, 2 h
[9] = molecular target: anhydro-trypsin (agarose-immobilized) (UniProt P00760); test: 2 µl immobilized anhydro-trypsin slurry, 4 h
[10] = molecular target: anhydro-trypsin (agarose-immobilized) (UniProt P00760); test: 5 µl immobilized anhydro-trypsin slurry, 1 h
[11] = molecular target: anhydro-trypsin (agarose-immobilized) (UniProt P00760); test: 5 µl immobilized anhydro-trypsin slurry, 2 h
[12] = molecular target: anhydro-trypsin (agarose-immobilized) (UniProt P00760); test: 5 µl immobilized anhydro-trypsin slurry, 4 h
[13] = molecular target: anhydro-trypsin (agarose-immobilized) (UniProt P00760); test: 10 µl immobilized anhydro-trypsin slurry, 1 h
[14] = molecular target: anhydro-trypsin (agarose-immobilized) (UniProt P00760); test: 10 µl immobilized anhydro-trypsin slurry, 2 h
[15] = molecular target: anhydro-trypsin (agarose-immobilized) (UniProt P00760); test: 10 µl immobilized anhydro-trypsin slurry, 4 h
[16] = molecular target: human neutrophil elastase (immobilized on Reacti-Gel agarose beads, or free) (human) (UniProt P08246); test: HNE beads
[17] = molecular target: trypsin (active, immobilized on beads, or in solution) (UniProt P00760); test: trypsin beads
[18] = molecular target: trypsin (active, immobilized on beads, or in solution) (UniProt P00760); test: trypsin beads; remark: listed apart in the source
[19] = molecular target: anhydro-trypsin (agarose-immobilized) (UniProt P00760); test: anhydrotrypsin beads
[20] = molecular target: trypsin (active, immobilized on beads, or in solution) (UniProt P00760); test: eluted from trypsin beads
[21] = molecular target: human neutrophil elastase (immobilized on Reacti-Gel agarose beads, or free) (human) (UniProt P08246); test: acid-eluted from HNE beads
[22] = molecular target: trypsin (active, immobilized on beads, or in solution) (UniProt P00760); test: acid-eluted from trypsin beads
[23] = molecular target: anhydro-trypsin (agarose-immobilized) (UniProt P00760); test: eluted from anhydrotrypsin beads
[24] = molecular target: human Cathepsin G (immobilized on agarose beads) (human) (UniProt P08311); test: Cat-G beads, pH 2.0 eluate
Sequence of human Cathepsin G (immobilized on agarose beads) (human) (P08311 21-244 limits assumed): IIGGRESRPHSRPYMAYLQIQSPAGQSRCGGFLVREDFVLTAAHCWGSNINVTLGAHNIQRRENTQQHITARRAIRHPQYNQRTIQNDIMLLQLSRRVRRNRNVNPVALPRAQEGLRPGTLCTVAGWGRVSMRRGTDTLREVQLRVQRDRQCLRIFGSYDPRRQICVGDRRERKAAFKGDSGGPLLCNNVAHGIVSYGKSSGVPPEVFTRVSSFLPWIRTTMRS

[25] = molecular target: human Cathepsin G (immobilized on agarose beads) (human) (UniProt P08311); test: Cat-G beads, pH 2.5 eluate
[26] = molecular target: human Cathepsin G (immobilized on agarose beads) (human) (UniProt P08311); test: Cat-G beads, pH 3.0 eluate
[27] = molecular target: human Cathepsin G (immobilized on agarose beads) (human) (UniProt P08311); test: Cat-G beads, pH 3.5 eluate
[28] = molecular target: human Cathepsin G (immobilized on agarose beads) (human) (UniProt P08311); test: Cat-G beads, pH 4.0 eluate
[29] = molecular target: human Cathepsin G (immobilized on agarose beads) (human) (UniProt P08311); test: Cat-G beads, pH 4.5 eluate
[30] = molecular target: human Cathepsin G (immobilized on agarose beads) (human) (UniProt P08311); test: Cat-G beads, pH 5.0 eluate
[31] = molecular target: human Cathepsin G (immobilized on agarose beads) (human) (UniProt P08311); test: Cat-G beads, pH 5.5 eluate
[32] = molecular target: human Cathepsin G (immobilized on agarose beads) (human) (UniProt P08311); test: Cat-G beads, pH 6.0 eluate
[33] = molecular target: human Cathepsin G (immobilized on agarose beads) (human) (UniProt P08311); test: Cat-G beads, pH 7.0 eluate
[34] = molecular target: human Cathepsin G (immobilized on agarose beads) (human) (UniProt P08311); test: Cat-G beads, all pH eluates
[35] = molecular target: human Cathepsin G (immobilized on agarose beads) (human) (UniProt P08311); test: Cat-G beads, final TBS-TWEEN wash
[36] = molecular target: M13mp18 phage (wild type, non-display phage); test: titer after normal rabbit IgG
[37] = molecular target: M13MB48 phage (BPTI fused to the mature M13 gene VIII major coat protein) (Bos taurus / phage M13); test: titer after normal rabbit IgG; batch 4
[38] = molecular target: M13MB48 phage (BPTI fused to the mature M13 gene VIII major coat protein) (Bos taurus / phage M13); test: titer after normal rabbit IgG; batch 5
[39] = molecular target: M13mp18 phage (wild type, non-display phage); test: titer after normal rabbit IgG + protein A beads
[40] = molecular target: M13MB48 phage (BPTI fused to the mature M13 gene VIII major coat protein) (Bos taurus / phage M13); test: titer after normal rabbit IgG + protein A beads; batch 4
[41] = molecular target: M13MB48 phage (BPTI fused to the mature M13 gene VIII major coat protein) (Bos taurus / phage M13); test: titer after normal rabbit IgG + protein A beads; batch 5
[42] = molecular target: streptavidin (agarose-immobilized) (UniProt P22629); test: titer after streptavidin beads
[43] = molecular target: anhydro-trypsin (agarose-immobilized) (UniProt P00760); test: titer after anhydrotrypsin beads
[44] = molecular target: anhydro-trypsin (agarose-immobilized) (UniProt P00760); test: anhydrotrypsin beads, experiment 1
[45] = molecular target: protein A (agarose beads) (UniProt P38507); test: titer after protein A beads alone; batch 5
[46] = molecular target: anhydro-trypsin (agarose-immobilized) (UniProt P00760); test: acid-eluted from anhydrotrypsin beads, experiment 1
[47] = molecular target: human neutrophil elastase (immobilized on Reacti-Gel agarose beads, or free) (human) (UniProt P08246); test: HNE beads, pH 4.0 wash
[48] = molecular target: human neutrophil elastase (immobilized on Reacti-Gel agarose beads, or free) (human) (UniProt P08246); test: HNE beads, pH 7.0 wash
[49] = molecular target: human neutrophil elastase (immobilized on Reacti-Gel agarose beads, or free) (human) (UniProt P08246); test: HNE beads, pH 2.2 elution
[50] = molecular target: human neutrophil elastase (immobilized on Reacti-Gel agarose beads, or free) (human) (UniProt P08246); test: HNE beads, sum of pH washes
[51] = molecular target: anhydro-trypsin (agarose-immobilized) (UniProt P00760); test: anhydrotrypsin beads, experiment 2
[52] = molecular target: anhydro-trypsin (agarose-immobilized) (UniProt P00760); test: 2 µl immobilized anhydro-trypsin, dot blot
[53] = molecular target: anhydro-trypsin (agarose-immobilized) (UniProt P00760); test: 5 µl immobilized anhydro-trypsin, dot blot
[54] = molecular target: anhydro-trypsin (agarose-immobilized) (UniProt P00760); test: 10 µl immobilized anhydro-trypsin, dot blot

Sequence of streptavidin (agarose-immobilized) (P22629 37-163 limits assumed): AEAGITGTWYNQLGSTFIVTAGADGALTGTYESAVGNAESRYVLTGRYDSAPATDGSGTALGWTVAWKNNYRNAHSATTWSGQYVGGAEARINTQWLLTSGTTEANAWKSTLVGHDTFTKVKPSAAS
Sequence of human neutrophil elastase (immobilized on Reacti-Gel agarose beads, or free) (human) (P08246 30-247 limits assumed): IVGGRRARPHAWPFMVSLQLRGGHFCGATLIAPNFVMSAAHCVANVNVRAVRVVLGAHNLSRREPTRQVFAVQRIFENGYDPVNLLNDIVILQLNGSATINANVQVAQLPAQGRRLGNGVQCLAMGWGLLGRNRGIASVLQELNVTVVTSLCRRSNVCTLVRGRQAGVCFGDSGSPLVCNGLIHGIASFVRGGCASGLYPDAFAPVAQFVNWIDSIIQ

“BPTI(K15V,R17L)-III MA phage (designed binder)” gave a pH of elution peak [1] of 4.25 pH.
Work on “MK phage (M13-MB1/2-delta-NarI with kanamycin-resistance gene; no displayed domain)” yielded a percent residual titer [2] of 106%, a percent residual titer [3] of 96% and a percent residual titer [4] of 98%. The % of input phage recovered [5] was 0.00028%, the total pfu recovered in elution buffer [5] was 1.35e+06 pfu and the % of input phage recovered [6] was 0.00034%. The total pfu recovered in elution buffer [6] was 1.48e+06 pfu, the percent residual titer [7] was 97% and the percent residual titer [8] was 103%. The percent residual titer [9] was 95%, the percent residual titer [10] was 110% and the percent residual titer [11] was 111%. It also gave a percent residual titer [12] of 96%, a percent residual titer [13] of 99% and a percent residual titer [14] of 93%. It also gave a percent residual titer [15] of 106%.
Substance “M13.3X11 phage (BPTI:VIII fusion with three linker units)” has a relative binding (to M13MP18) [16] of 6.7 fold, a relative binding (to M13MP18) [17] of 1200 fold and a relative binding (to M13MP18) [18] of 1600 fold. For the same substance, the relative binding (to M13MP18) [19] was 92 fold, the eluted phage, % of input [20] was 0.27% and the eluted phage, % of input [21] was 0.002%. It also gave an eluted phage, % of input [22] of 0.8% and an eluted phage, % of input [23] of 9.2%.
Work on “MA-ITI phage (M13 phage displaying human ITI domain I fused to the gene III protein) (from UniProt P02760 227-281)” yielded a fraction of input [24] of 7e-07, a fraction of input [25] of 5.9e-07 and a fraction of input [26] of 7.8e-07. It also gave a fraction of input [27] of 9.6e-07, a fraction of input [28] of 9.6e-07 and a fraction of input [29] of 1.5e-06. The fraction of input [30] was 2.4e-06, the fraction of input [31] was 2.6e-06 and the fraction of input [32] was 5e-06. For the same substance, the fraction of input [33] was 1.3e-05, the fraction of input, SUM of pH elution fractions [34] was 3e-05 and the total pfu, SUM of pH elution fractions [34] was 1.4e+07 pfu. The fraction of input [35] was 1.5e-05 and the total pfu in sample [35] was 7.1e+06 pfu.
“normal rabbit serum / IgG purified from normal rabbit pre-immune serum (antibody)” gave a % of input pfu [36] of 104%, a % of input pfu [37] of 125% and a % of input pfu [38] of 105%. For the same substance, the % of input pfu [39] was 88%, the % of input pfu [40] was 121% and the % of input pfu [41] was 110%.
Substance “M13.3X7 phage (BPTI:VIII fusion with one EGGGS linker)” has an eluted phage, % of input [21] of 0.001%.
Substance “M13MB48 phage (BPTI fused to the mature M13 gene VIII major coat protein)” has a relative binding (to M13MP18) [16] of 30 fold, a relative binding (to M13MP18) [18] of 260 fold and an eluted phage, % of input [21] of 0.009%. The % of input pfu post incubation [42] was 98%, the eluted phage, % of input [22] was 0.13% and the % of input pfu post incubation [43] was 58%. The binding relative to M13MP18 [44] was 56 fold, the % of input pfu [45] was 58% and the eluted phage, % of input [46] was 11.2%.
Work on “BPTI-III MK phage (M13 phage displaying mature BPTI fused to the gene III protein)” yielded a relative binding (to M13MP18) [17] of 5000 fold, a relative binding (to M13MP18) [18] of 2000 fold and a % of input phage [47] of 0.001%. For the same substance, the total pfu in fraction [47] was 30000 pfu, the % of input phage [48] was 0.002% and the total pfu in fraction [48] was 50000 pfu. It also gave a % of input phage recovered [49] of 0.005%, an eluted phage, % of input [21] of 0.005% and a percentage of input phage recovered (all fractions) [50] of 0.008%. The eluted phage, % of input [22] was 1%, the binding relative to M13mp18 [51] was 40 fold and the percent of total phage recovered in elution buffer [52] was 5%. For the same substance, the percent of total phage recovered in elution buffer [53] was 20%, the percent of total phage recovered in elution buffer [54] was 50% and the percent residual titer [11] was 40%. For the same substance, the percent residual titer [13] was 40% and the percent residual titer [14] was 30%.

From patent publication US7118879
